Substitutions are numbered along the chain they refer to. Numbers in names are those of the source. No end group written: not given here.
Assays:
[1] = molecular target: PLK4 884-970 (Homo sapiens) (UniProt O00444); experiment: ITC; conditions: cited from earlier work
STIL CCD_(718–749) L736E = experiment: crystal structure; L736E crystallized at 0.9 mM peptide, 50 mM Tris pH 8.0, 10% v/v MPD, 4 °C; 1.67 Å
[2] = molecular target: T1, STIL CCD peptide with a different fluorophore (fluorescence polarization) (a fluorophore other than the coumarin, not named, position not stated; C-terminal amide); experiment: fluorescence polarisation; same STIL CCD peptide with a different fluorophore; Hill fit; dimer to monomers; conditions: both partners purified
T1 construct: STIL coiled-coil domain, residues 718-749; also called same STIL CCD peptide and different fluorophore; source: synthetic peptide
T1 peptide: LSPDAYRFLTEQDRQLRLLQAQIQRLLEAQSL

[3] = molecular target: the molecule itself; experiment: AUC; sedimentation velocity, 75 µM peptide, c(s) distribution; 20 °C, 25 mM sodium phosphate pH 6.8, ionic strength 154 mM (NaCl)
[4] = molecular target: the molecule itself; experiment: AUC; sedimentation velocity, 500 µM peptide, c(s) distribution; 20 °C, 25 mM sodium phosphate pH 6.8, ionic strength 154 mM (NaCl)
[5] = molecular target: the molecule itself; experiment: AUC; sedimentation velocity, 12.5 µM peptide, c(s) distribution; 20 °C, 25 mM sodium phosphate pH 6.8, ionic strength 154 mM (NaCl)
[6] = molecular target: the molecule itself; experiment: AUC; sedimentation velocity, 10 µM peptide, c(s) distribution; 20 °C, 25 mM sodium phosphate pH 6.8, ionic strength 154 mM (NaCl)
[7] = molecular target: the molecule itself; experiment: AUC; sedimentation equilibrium, starting concentrations 5, 10 and 20 µM, unlabelled peptide, no DMSO; 20 °C, sodium phosphate pH 6.8 with NaCl; fitted to a single ideal species (N) and, for the WT, to a dimer-tetramer model (apparent KD: tetramer to dimers)
[8] = molecular target: the molecule itself; experiment: as above; remark: listed apart in the source
[9] = molecular target: T2, WT STIL CCD peptide labelled with 7-(Diethylamino)coumarin-3-carboxylic acid (7-(Diethylamino)coumarin-3-carboxylic acid on the N-terminus; C-terminal amide); experiment: other fluorescence titration; fluorescence read on a Monolith NT.115 (micro-scale thermophoresis instrument); 5 µM coumarin-labelled peptide with unlabelled peptide 9 nM to 300 µM; 25 mM sodium phosphate pH 6.8, ionic strength 154 mM (NaCl), 5% DMSO, room temperature (24 °C); Hill fit; apparent; taken by the paper as dimer to monomers; conditions: both partners purified
T2 construct: STIL coiled-coil domain, residues 718-749; also called labeled-WT CCD; fluorophore-labelled peptide; source: synthetic peptide (Fmoc-SPPS, fluorophore coupled on the resin, RP-HPLC purified)
T2 peptide: T1 peptide

[10] = system: Stil−/− mouse embryonic fibroblasts; conditions: full-length STIL expressed in Stil−/− mouse embryonic fibroblasts; ref [14]; cited from earlier work
From the text: Presumably, this is due to the disruption of the hydrophobic CC interactions upon mutation from the hydrophobic Leu to the charged Glu. […] Other ...

Chain of PLK4 884-970 (Homo sapiens) (O00444 884-970): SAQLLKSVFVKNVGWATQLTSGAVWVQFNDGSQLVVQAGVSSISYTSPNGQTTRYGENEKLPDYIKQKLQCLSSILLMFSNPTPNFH

## STIL CCD (from UniProt Q15468)
[1]
  Kd: 0.28 µM

## STIL CCD_(718–749) L736E (peptide)
STIL CCD_(718–749) L736E
  stoichiometry N: 2

B1: STIL CCD_(718–749) WT (peptide)
peptide: LSPDAYRFLTEQDRQLRLLQAQIQRLLEAQSL-NH2
notes: STIL (SCL/TAL1 Interrupting Locus) coiled-coil domain, residues 718-749; 32-residue peptide, unlabelled; also called WT STIL CCD peptide; WT CCD; source: synthetic peptide (Fmoc-SPPS on rink amide, RP-HPLC purified)
[2]
  Kd: 8.5 ± 0.4 µM
[3]
  stoichiometry N: 3.27 × monomer mass
[4]
  stoichiometry N: 3.4 × monomer mass
[5]
  stoichiometry N: 2 × monomer mass
[6]
  stoichiometry N: 1.7
[7]
  Kd: 68 ± 2 µM
[8]
  stoichiometry N: 2.9 ± 0.04
[9]
  Kd: 8 ± 2 µM

B2: full-length L736E mutant: full-length STIL protein with L736E mutation (protein, UniProt Q15468 1-1287, looked up, variant L736E)
chain: MEPIYPFARPQMNTRFPSSRMVPFHFPPSKCALWNPTPTGDFIYLHLSYYRNPKLVVTEKTIRLAYRHAKQNKKNSSCFLLGSLTADEDEEGVTLTVDRFDPGREVPECLEITPTASLPGDFLIPCKVHTQELCSREMIVHSVDDFSSALKALQCHICSKDSLDCGKLLSLRVHITSRESLDSVEFDLHWAAVTLANNFKCTPVKPIPIIPTALARNLSSNLNISQVQGTYKYGYLTMDETRKLLLLLESDPKVYSLPLVGIWLSGITHIYSPQVWACCLRYIFNSSVQERVFSESGNFIIVLYSMTHKEPEFYECFPCDGKIPDFRFQLLTSKETLHLFKNVEPPDKNPIRCELSAESQNAETEFFSKASKNFSIKRSSQKLSSGKMPIHDHDSGVEDEDFSPRPIPSPHPVSQKISKIQPSVPELSLVLDGNFIESNPLPTPLEMVNNENPPLINHLEHLKPLQPQLYDEKHSPEVEAGEPSLRGIPNQLNQDKPALLRHCKVRQPPAYKKGNPHTRNSIKPSSHNGPSHDIFEKLQTVSAGNVQNEEYPIRPSTLNSRQSSLAPQSQPHDFVFSPHNSGRPMELQIPTPPLPSYCSTNVCRCCQHHSHIQYSPLNSWQGANTVGSIQDVQSEALQKHSLFHPSGCPALYCNAFCSSSSPIALRPQGDMGSCSPHSNIEPSPVARPPSHMDLCNPQPCTVCMHTPKTESDNGMMGLSPDAYRFLTEQDRQLRLEQAQIQRLLEAQSLMPCSPKTTAVEDTVQAGRQMELVSVEAQSSPGLHMRKGVSIAVSTGASLFWNAAGEDQEPDSQMKQDDTKISSEDMNFSVDINNEVTSLPGSASSLKAVDIPSFEESNIAVEEEFNQPLSVSNSSLVVRKEPDVPVFFPSGQLAESVSMCLQTGPTGGASNNSETSEEPKIEHVMQPLLHQPSDNQKIYQDLLGQVNHLLNSSSKETEQPSTKAVIISHECTRTQNVYHTKKKTHHSRLVDKDCVLNATLKQLRSLGVKIDSPTKVKKNAHNVDHASVLACISPEAVISGLNCMSFANVGMSGLSPNGVDLSMEANAIALKYLNENQLSQLSVTRSNQNNCDPFSLLHINTDRSTVGLSLISPNNMSFATKKYMKRYGLLQSSDNSEDEEEPPDNADSKSEYLLNQNLRSIPEQLGGQKEPSKNDHEIINCSNCESVGTNADTPVLRNITNEVLQTKAKQQLTEKPAFLVKNLKPSPAVNLRTGKAEFTQHPEKENEGDITIFPESLQPSETLKQMNSMNSVGTFLDVKRLRQLPKLF
modifications: full-length
notes: full-length STIL protein with L736E mutation
[10]
  formation of centrosomes and cilia (in words): completely disrupts the formation of centrosomes and cilia

B3: WT STIL: full-length wild-type STIL protein (protein, UniProt Q15468 1-1287, looked up)
chain: B2 chain with E736L
modifications: full-length
notes: full-length wild-type STIL protein
[10]
  formation of centrosomes and cilia (in words): rescues this phenotype
